The target of assay [1] is T1, IGFBP-3 (Homo sapiens, UniProt P17936).
T1 construct: made in house
The experiment in a line: BIACORE competition assay: IGFBP-3 binding to immobilized IGF-1. As to the method:
IGF-1 was immobilized on a dextran chip for inhibition assays using a BIACORE™ 2000 surface-plasmon-resonance device (BIAcore, Inc., Piscataway, N.J.) to measure free binding protein. IGF-1 was biotinylated as described above, and injected over a chip to which streptavidin had been coupled (BIAcore, Inc.) to give 400 to 800 RU (response units) of immobilized IGF-1. […] Serial dilutions of peptide were mixed with a constant concentration (40 nM) of IGFBP-3. After incubation for >1 hour at room temperature, an aliquot of 20 μL was injected at a flow rate of 20 μL/min over the IGF-1 chip. Following the injection, a response reading was taken to measure the relative amount of IGFBP-3 bound to the IGF-1.
For orientation: Surface plasmon resonance follows binding to a sensor surface in real time, without labels.

In assay [2] the target is T1, IGFBP-3. In words: competitive phage ELISA of IGF-1 mutants, IGFBP-3. It is filed as binding. The conditions noted are these: for larger effects on IGFBP-3 than on IGFBP-1 binding: phage ELISA. As to the method: (§1) An alanine-scanning mutagenesis approach (Cunningham and Wells, Science, 244: 1081-1085 (1989); U.S. Pat. No. 5,834,250) was used to remove that portion of each side chain of IGF-1 beyond the beta carbon. The contribution of these atoms to the free energy of binding of the IGF-1 analog to IGFBP-1 or to IGFBP-3 was then assessed by competitive phage ELISA. In this assay, IGFBP-1 or IGFBP-3 is used to inhibit IGF-phage mutants from binding to an IGFBP-1- or IGFBP-3-coated immunosorbant plate.
(§2) Immunosorbent plates (Nunc, MAXISORP™, 96 wells) were coated with 100 μl/well of 1 μg/ml IGFBP-1 or IGFBP-3 in PBS buffer pH 7.2 at 4° C. overnight. The plates were then blocked with 0.5% TWEEN 20™/PBS (also used as binding buffer) for 2 hours at room temperature (proteinaceous blocking agents like bovine serum albumin were avoided to prevent potential IGF or IGFBP contamination). E. coli cells (XL1-Blue, Stratagene) freshly transformed with phagemid vector were grown overnight in 5 mL 2YT medium (Sambrook et al., supra) in the presence of M13-VCS helper phage (Stratagene). Phage particles were harvested and resuspended in PBS buffer as described in Lowman, H. B., “Phage Display of Peptide Libraries on Protein Scaffolds,” in Cabilly, S. (ed.), Combinatorial Peptide Library Protocols (Humana Press Inc.: Totowa, N.J., 1998), pp. 249-264. Then phage concentrations were normalized to yield a maximal ELISA signal of 0.2-0.4 for each mutant (Lowman, in Cabilly, S. (ed.), supra). Threefold serial dilutions of soluble competitor were prepared on non-absorbent microtiter plates (Nunc, F, 96 wells) with binding buffer (0.5% TWEEN 20™/PBS) containing phage at the previously determined concentrations. The dilution range of competitor protein extended over six orders of magnitude, starting at 5 μM for IGFBP-1 and 500 nM for IGFBP-3. After blocking, the plates containing immobilized target were washed with 0.05% TWEEN™/PBS buffer and subsequently incubated with 80 μl/well of the premixed phage-competitor solutions for 1 hour at room temperature. After washing, bound phage was detected with 80 μl/well of a solution containing a primary rabbit anti-phage polyclonal antibody and a secondary goat anti-rabbit monoclonal antibody-horseradish peroxidase conjugate in 0.5% TWEEN 20™/PBS. o-Phenylenediamine (Sigma) and tetramethylbenzidine (Kirkegaard and Perry) were used as chromogenic substrates, resulting in product detection at 492 and 450 nm, respectively. IC50 values were determined by fitting the binding data to a generic saturation curve (Lowman, in Cabilly, S. (ed.), supra). At least two individual clones of each IGF-1 mutant were assayed. Numbers in Table XIII represent mean±standard deviation of individually assessed IC50 values.
In general terms: In an ELISA, binding on a coated surface is turned into a signal by an enzyme label.

The target of assay [3] is T2, IGFBP-1 (Homo sapiens, UniProt P08833).
T2 sequence (P08833 26-259): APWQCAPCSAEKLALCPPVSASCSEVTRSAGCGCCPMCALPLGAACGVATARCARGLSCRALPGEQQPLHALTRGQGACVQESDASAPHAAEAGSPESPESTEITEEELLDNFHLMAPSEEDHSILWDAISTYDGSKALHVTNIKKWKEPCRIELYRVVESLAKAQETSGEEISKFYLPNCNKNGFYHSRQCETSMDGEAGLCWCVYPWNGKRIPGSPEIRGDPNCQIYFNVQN
In words: competitive phage ELISA of IGF-1 mutants, IGFBP-1. It is filed as binding. Further details: made in house; host or cells: CHO cells. As to the method:
as §1, §2

For assay [4], the target named is T2, IGFBP-1. In words: BIACORE kinetics: IGFBP-1 binding to immobilized IGF-1 variants. The arrangement: made in house; host or cells: CHO cells. Conditions: Table XVI; Y31C immobilized via disulfide linkage. The procedure: The binding affinities of the IGF variants for IGFBP-1 and IGFBP-3 were determined using a BIACORE™-2000 real time kinetic interaction analysis system (Biacore, Inc., Piscataway, N.J.) to measure association (ka) and dissociation (kd) rates. Carboxymethylated dextran biosensor chips (CM5, BIAcore Inc.) were activated with EDC (N-ethyl-N′-(3-dimethylaminopropyl)-carbodiimide hydrochloride) and NHS(N-hydroxysuccinimide) according to the supplier's instructions. For immobilization, IGF mutants in 20 mM sodium acetate, pH 4.8, were injected onto the biosensor chip at a concentration of 50 μg/ml to yield approximately 450-600 RU's (resonance-responce units) of covalently-coupled protein. Unreacted groups were blocked with an injection of 1 M ethanolamine. Kinetic measurements were carried out by injecting two-fold serial dilutions (starting at 1 μM) of either IGFBP-1 or IGFBP-3 in running buffer (PBS, 0.05% TWEEN 20™, 0.1% ovalbumin, 0.1% sodium azide) at 25 °C using a flow rate of 20 μl/min. Association rates (ka) and dissociation rates (kd) were calculated separately using a 1:1 Langmuir™ association model in the BIACORE™ evaluation software v. 3.0. The equilibrium dissociation constant (KD) was calculated as kd/ka.
For measurements of IGFBP-1 binding to IGF-1, kinetics experiments were conducted using a single-cysteine IGF-1 variant, Y31C, that was immobilized onto the sensor chip surface via a disulfide linkage (BIACORE™ System Manual Supplement, 5a-1, Pharmacia (1991)).

In assay [5] the test system is IGFBP-1. In words: competitive phage ELISA of IGF-1 mutants, IGFBP-1. It is filed as binding, human. The conditions noted are these: relative IC50 IGFBP-1/relative IC50 IGFBP-3. As to the method: as §1, §2
[6] abbreviates: phage display, soluble IGFBP-3 competitor.
The mark [7] stands for this setting: phage display, soluble IGFBP-1 competitor.
Setting [8] is: IC50 mut/IC50 G1S-A70V, listed as Ala(1-3)-IGF-1.

Starred links: 1 amine or outer side, 2 acyl side, 3 side chain; linkers in the order of their positions; H or OH if unused. Positions of bridges follow the written chain, without caps; N, C: chain ends. Residues, ends and D or L forms follow the SMILES beside them. Suc = O=C(CCC(=O)[*:2])[*:1]

T1 sequence (P17936 28-291): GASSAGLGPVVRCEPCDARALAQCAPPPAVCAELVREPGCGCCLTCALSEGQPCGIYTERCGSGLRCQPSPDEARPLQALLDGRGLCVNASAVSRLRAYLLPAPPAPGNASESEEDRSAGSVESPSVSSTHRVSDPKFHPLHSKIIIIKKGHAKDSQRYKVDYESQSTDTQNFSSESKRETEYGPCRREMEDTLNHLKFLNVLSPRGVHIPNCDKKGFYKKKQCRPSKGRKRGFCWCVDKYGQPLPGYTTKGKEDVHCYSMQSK

As to `CC(C)C[C@@H]1NC(=O)[C@H](CC(C)C)NC(=O)[C@H](CC(C)C)NC(=O)[C@H](CC(=O)O)NC(=O)[C@@H]2CCCN2C(=O)[C@H](CCCNC(=N)N)NC(=O)[C@H](C(C)C)NC(=O)[C@H](CC(C)C)NC(=O)[C@H](CCC(N)=O)NC(=O)[C@@H](NC(=O)CCC(=O)O)CSSC[C@@H](C(=O)N[C@@H](CCC(N)=O)C(N)=O)NC1=O` [BP3-107] (Suc-CQLVRPDLLLCQ-NH2; disulfide 1-11), at IGFBP-3 [1] (inhibition of 40 nM IGFBP-3 binding to immobilized IGF-1), the IC50 (usually the midpoint of a concentration-inhibition curve) was found to be 100 µM.
On IGFBP-3 [1], `CC(C)C[C@@H]1NC(=O)[C@H](Cc2ccc(O)cc2)NC(=O)[C@H](Cc2c[nH]c3ccccc23)NC(=O)[C@H](CCC(=O)O)NC(=O)[C@H](C)NC(=O)[C@H](C(C)C)NC(=O)[C@@H]2CCCN2C(=O)[C@H](Cc2c[nH]c3ccccc23)NC(=O)[C@@H](N)CSSC[C@@H](C(=O)N[C@@H](CC(N)=O)C(=O)O)NC1=O` [BP3-25] (H-CWPVAEWYLCN-OH; disulfide 1-10; N-terminus and C-terminus assumed) showed an IC50 of 46 µM. Further, the “IC50 (mut) / IC50 (wt)” value on IGFBP-3 [1] (IGF-1 inhibition, wt = BP3-01-ox) was 23.
In the case of “Y31C: point mutant of IGF-1 with a single unpaired cysteinyl thiol for site-specific immobilization”, the “IGFBP-3 IC50” value with IGFBP-3 [2] (setting [6]) is reported as “wild-type-like affinities”. In addition, the “IGFBP-1 IC50” value with IGFBP-1 [3] (setting [7]) is “wild-type-like affinities”. Moreover, in the assay with IGFBP-1 [4], the IGFBP-1 ka is 3.9 ± 0.4 ×10^4 M^−1 and the IGFBP-1 kd is given as 3.8 ± 0.1 ×10^−4 s^−1.
`CC[C@H](C)[C@@H]1NC(=O)[C@H](Cc2ccc(O)cc2)NC(=O)CNC(=O)[C@H](CCC(N)=O)NC(=O)[C@H](Cc2c[nH]cn2)NC(=O)[C@H](CCCNC(=N)N)NC(=O)[C@H](CC(=O)O)NC(=O)[C@H](Cc2c[nH]c3ccccc23)NC(=O)[C@@H](NC(=O)[C@@H](NC(=O)[C@H](CCC(=O)O)NC(=O)[C@H](Cc2c[nH]c3ccccc23)NC(=O)[C@H](C)N)C(C)C)CSSC[C@@H](C(=O)N[C@H](C(=O)N[C@H](C(=O)N[C@@H](CC(=O)O)C(=O)N[C@@H](CO)C(=O)O)[C@@H](C)O)[C@@H](C)O)NC1=O` [BP3-4D3.11DEL] (H-AWEVCWDRHQGYICTTDS-OH; disulfide 5-14; N-terminus and C-terminus assumed): at IGFBP-3 [1], the IC50 worked out at 80 µM.
On to F23A: IGF-1 single alanine mutant, for which the relative specificity in the assay on IGFBP-1 [5] amounted to 0.5. In addition, the “larger effects on IGFBP-3 than on IGFBP-1 binding” value with IGFBP-3 [2] is “about 2 fold”. Besides, the IC50 in the assay with IGFBP-3 [2] (setting [6]) was determined as 2.18 ± 0.01 nM; in the assay with IGFBP-1 [3] (setting [7]), 10.9 ± 1.9 nM.
For E58A: IGF-1 single alanine mutant, in the assay on IGFBP-1 [5], the relative specificity was 1.1. Besides, the IC50 with IGFBP-3 [2] (setting [6]) amounted to 1.03 ± 0.47 nM; with IGFBP-1 [3] (setting [7]), 11.9 ± 1.8 nM.
For P66A: IGF-1 single alanine mutant the same measures were 1.5, 0.57 ± 0.12 nM and 9.4 ± 3.2 nM.
For L57A: IGF-1 single alanine mutant, the relative specificity in the assay on IGFBP-1 [5] was 1.1. In addition, the IC50 with IGFBP-3 [2] (setting [6]) stood at 1.78 ± 0.56 nM; in the assay with IGFBP-1 [3] (setting [7]) it was 21.8 ± 5.6 nM.
For S69A: IGF-1 single alanine mutant the same measures were 1.3, 0.71 ± 0.62 nM and 12.8 ± 2.3 nM.
For E46A: IGF-1 single alanine mutant the same measures were 0.8, 0.94 ± 0.28 nM and 7.9 ± 2.1 nM.
In the assay on IGFBP-1 [5], S33A: IGF-1 single alanine mutant gave a relative specificity of 0.8. The IC50 amounted to 1.01 ± 0.24 nM with IGFBP-3 [2] (setting [6]) and 9.1 ± 1 nM in the assay with IGFBP-1 [3] (setting [7]).
As for T29A: IGF-1 single alanine mutant, the relative specificity in the assay on IGFBP-1 [5] was 0.5. In addition, the “larger effects on IGFBP-3 than on IGFBP-1 binding” value in the assay with IGFBP-3 [2] is “about 2 fold”. Further, the values for the IC50 with IGFBP-3 [2] (setting [6]) and in the assay with IGFBP-1 [3] (setting [7]) were 1.23 ± 0.16 nM and 7.3 ± 2.4 nM, respectively.
Consider L54A: IGF-1 single alanine mutant, for which, in the assay on IGFBP-1 [5], the relative specificity is listed as 1.2. In addition, the IC50 with IGFBP-3 [2] (setting [6]) was 1.83 ± 0.91 nM; with IGFBP-1 [3] (setting [7]), 23.1 ± 12 nM.
For L64A: IGF-1 single alanine mutant the same measures were 1.2, 0.93 ± 0.03 nM and 12.1 ± 3.3 nM.
As to I43A: IGF-1 single alanine mutant, the relative specificity with IGFBP-1 [5] is reported as 2.4. The 50% inhibitory concentration (IC50) stood at 1.17 ± 0.07 nM in the assay with IGFBP-3 [2] (setting [6]) and 31.3 ± 4.1 nM with IGFBP-1 [3] (setting [7]).
Taken in the same sequence, the figures for G22A: IGF-1 single alanine mutant were 0.7, 2.07 ± 0.11 nM and 15.9 ± 2.8 nM.

B1: Ala(1-3)-IGF: triple alanine mutant substituting the first three N-terminal amino acids of IGF-1 (protein)
chain: AAATLCGAELVDALQFVCGDRGFYFNKPTGYGSSSRRAPQTGIVDECCFRSCDLRRLEMYCAPLKPAKSVSGGGSGSGDFDYEKMANANKGAMTENADENALQSDAKGKLDSVATDYGAAIDGFIGDVSGLANGNGATGDFAGSNSQMAQVGDGDNSPLMNNFRQYLPSLPQSVECRPFVFSAGKPYEFSIDCDKINLFRGVFAFLLYVATFMYVFSTFANILRNKES
The molecule B1 yielded a relative specificity in the assay on IGFBP-1 [5] of 7.3. The “IGFBP-3 relative IC50” value with IGFBP-3 [2] (setting [8]) is listed as “no change in IGFBP-3 affinity”. Further, in the assay with IGFBP-1 [3] (setting [8]), the “IGFBP-1 Relative IC50” value is reported as “decreased IGFBP-1 affinity similar to E3A”.

Values taken from patent US7423017B2, “Method for treating cartilage disorders” (Genentech, Inc., priority 1997, dated 2008).
